Test results: IntAct's records for PubMed 24141193

B1: Protein kinase doc (Escherichia phage P1), Q06259 (parent)
chain: MRHISPEELIALHDANISRYGGLPGMSDPGRAEAIIGRVQARVAYEEITDLFEVSATYLVATARGHIFNDANKRTALNSALLFLRRNGVQVFDSPELADLTVGAATGEISVSSVADTLRRLYGSAE

Variants of: B1
Conditions: with eftu1_ecoli tufA

Row | Variant | effect of a mutation on the interaction
1 | R64G | disrupting interaction strength
